Numbered stars: 1 amine (or outer) side, 2 acyl side, 3 side chain; on linkers, the order of the positions; unused ones are H or OH. Square brackets hold non-standard residues; d marks the D form. Ends that are not written are not given here. SMeCys = S-methylcysteine, CSC[C@H](N[*:1])C(=O)[*:2]; Tic = O=C(O)[C@@H]1Cc2ccccc2CN1; Cha = N[C@@H](CC1CCCCC1)C(=O)O; Phg = N[C@H](C(=O)O)c1ccccc1
T1: human thrombin receptor (human, UniProt P25116 42-425)
T1 chain: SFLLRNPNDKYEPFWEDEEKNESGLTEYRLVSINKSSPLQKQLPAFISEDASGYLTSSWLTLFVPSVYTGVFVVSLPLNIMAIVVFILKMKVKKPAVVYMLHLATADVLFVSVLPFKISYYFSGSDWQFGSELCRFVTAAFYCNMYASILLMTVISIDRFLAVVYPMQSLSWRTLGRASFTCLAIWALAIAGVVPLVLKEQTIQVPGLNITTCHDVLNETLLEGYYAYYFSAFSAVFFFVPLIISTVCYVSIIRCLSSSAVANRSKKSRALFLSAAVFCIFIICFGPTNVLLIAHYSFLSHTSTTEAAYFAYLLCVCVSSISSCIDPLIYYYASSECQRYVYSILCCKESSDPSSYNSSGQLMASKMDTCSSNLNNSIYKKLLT

B1: SF(Tic)LRN-NH2 (peptide)
peptide: SF[Tic]LRN-NH2
modifications: N-terminus assumed
SMILES: CC(C)C[C@H](NC(=O)[C@@H]1Cc2ccccc2CN1C(=O)[C@H](Cc1ccccc1)NC(=O)[C@@H](N)CO)C(=O)N[C@@H](CCCNC(=N)N)C(=O)N[C@@H](CC(N)=O)C(N)=O
B2: (S-MeCys)FLLRN-NH2 (peptide)
peptide: [SMeCys]FLLRN-NH2
modifications: N-terminus assumed
SMILES: CSC[C@H](N)C(=O)N[C@@H](Cc1ccccc1)C(=O)N[C@@H](CC(C)C)C(=O)N[C@@H](CC(C)C)C(=O)N[C@@H](CCCNC(=N)N)C(=O)N[C@@H](CC(N)=O)C(N)=O
B3: SFL(Cha)R-NH2 (peptide)
peptide: SFL[Cha]R-NH2
modifications: N-terminus assumed
SMILES: CC(C)C[C@H](NC(=O)[C@H](Cc1ccccc1)NC(=O)[C@@H](N)CO)C(=O)N[C@@H](CC1CCCCC1)C(=O)N[C@@H](CCCNC(=N)N)C(N)=O
B4: SF(Cha)LR-NH2 (peptide)
peptide: SF[Cha]LR-NH2
modifications: N-terminus assumed
SMILES: CC(C)C[C@H](NC(=O)[C@H](CC1CCCCC1)NC(=O)[C@H](Cc1ccccc1)NC(=O)[C@@H](N)CO)C(=O)N[C@@H](CCCNC(=N)N)C(N)=O
B5: SF(Phg)LR-NH2 (peptide)
peptide: SF[Phg]LR-NH2
modifications: N-terminus assumed
SMILES: CC(C)C[C@H](NC(=O)[C@@H](NC(=O)[C@H](Cc1ccccc1)NC(=O)[C@@H](N)CO)c1ccccc1)C(=O)N[C@@H](CCCNC(=N)N)C(N)=O
B6: SF(Cha)LRN-NH2 (peptide)
peptide: SF[Cha]LRN-NH2
modifications: N-terminus assumed
SMILES: CC(C)C[C@H](NC(=O)[C@H](CC1CCCCC1)NC(=O)[C@H](Cc1ccccc1)NC(=O)[C@@H](N)CO)C(=O)N[C@@H](CCCNC(=N)N)C(=O)N[C@@H](CC(N)=O)C(N)=O

Molecular target: T1, human thrombin receptor
Assay: cell-based or functional assay

Binder | EC50 (concentration required to elicit a 50% maximal aggregation), platelet aggregation
SFALRNPNDKYE | 20.7 µM
SXLLR (OMeTyr at position 2; C-terminal amide (NH2)) [S(OMeTyr)LLR-NH2] | 46 µM
B1 | 11.3 µM
GFLLR-NH2 [GFLLRNH2] | 7.3 µM
SFHLRN-NH2 [SFHLRN-NH2] | 40.5 µM
desaminoAsn-FLLR-NH2 [[desaminoAsn]-FLLR-NH2] | 237 µM
{3‑Tetrahydrofuranoyl}-FLLR-NH2 [[3-Tetrahydrofuranoyl]-FLLR-NH2] | 1000 µM
SFFLRN-NH2 [SFFLRN-NH2] | 1.5 µM
SFLL-NH2 [SFLL-NH2] | 146 µM
SYLLR-NH2 [SYLLR-NH2] | 288 µM
SXLLR (Cha at position 2; C-terminal amide (NH2)) [S(Cha)LLR-NH2] | 140 µM
SFLAR-NH2 [SFLAR-NH2] | 146 µM
B2 | 129 µM
SFL[Nal]RN-NH2 (not fully specified; printed as SFL(Nal)RN-NH2) [SFL(Nal)RN-NH2] | 7.5 µM
SFILR-NH2 [SFILR-NH2] | 5.9 µM
B3 | 6 µM
SFLIRN-NH2 [SFLIRN-NH2] | 20.5 µM
SFWLR-NH2 [SFWLR-NH2] | 24 µM
SFGLR-NH2 [SFGLR-NH2] | 95 µM
SFLFR-NH2 [SFLFR-NH2] | 17 µM
SFPLR-NH2 [SFPLR-NH2] | 22 µM
{2‑MeButyryl}-FLLR-NH2 [(2-MeButyryl]-FLLR-NH2] | 1500 µM
XFLLR (b-Ala at position 1; C-terminal amide (NH2)) [[b-Ala]-FLLR-NH2] | 99 µM

Binder | EC50 (concentration required to elicit a 50% maximal aggregation), platelet aggregation
SFYLRN-NH2 [SFYLRN-NH2] | 4.9 µM
B4 | 1.5 µM
SXLLR (Nal at position 2; C-terminal amide (NH2)) [S(Nal)LLR-NH2] | 42 µM
SFLLRNPNDK | 6.3 µM
B5 | 6.7 µM
B6 | 1.3 µM
SFFLR-NH2 [SFFLR-NH2] | 3.4 µM
SFLLR-NH2 [SFLLR-NH2] | 7.5 µM
SFRLR-NH2 [SFRLR-NH2] | 7.4 µM
XFLLR (desaminoSer at the N-terminus; C-terminal amide (NH2)) [[desaminoSer]-FLLR-NH2] | 920 µM
SXLLR (Thi at position 2; C-terminal amide (NH2)) [S(Thi)LLR-NH2] | 7.6 µM
Ac-FLLRNPNDKYEPF [Ac-FLLRNPNDKYEPF] | 796 µM
SFLRR-NH2 [SFLRR-NH2] | 1000 µM
SFLQRN-NH2 [SFLQRN-NH2] | 61 µM
SFXLR (N-MeLeu at position 3; C-terminal amide (NH2)) [SF(N-MeLeu)LR-NH2] | > 1000 µM
SFLLRNPN | 7.6 µM
SFLLRN-NH2 [SFLLRN-NH2] | 1.6 µM
TFLLRNPNDK | 8.5 µM
CFLLR-NH2 [CFLLR-NH2] | 193 µM
SFLLRNP-NH2 [SFLLRNP-NH2] | 4.5 µM
SFLLRNPNDKYE | 6.6 µM
AFLLRNPNDKYE | 12.9 µM
